From the RNAGym collection of RNA variant scans (doi:10.1073/pnas.2313332121)
Fewer inactive variants are shown than the library holds.

B1: TPR 5TU (parent)
chain: GGAUCUUCUCGAUCUAACAAAAAAGACAAAUCUGCCACAAAGCUUGAGAGCAUCUUCGGAUGCAGAGGCGGCAGCCUUCGGUGGCGCGAUAGCGCCAACGUUCUCAACUAUGACACGCAAAACGCGUGCUCCGUUGAAUGGAGUUUAUCAUG

Variants of: B1
Test: polymerase ribozyme fitness, log enrichment relative to wild type (log ratio); higher = more active; in vitro selection for triplet polymerase activity
How it was run: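 A single round of triplicate in vitro selection, including frozen incubation at −7 °C, was applied to PCR-built, transcribed mutant libraries of each subunit of a heterodimeric triplet polymerase ribozyme. Illumina sequencing of input and output libraries retained genotypes with ≥10 input reads and ≥1 read per output. Fitness is the base-2 logarithm of genotype enrichment divided by wild-type enrichment, from inverse-variance-weighted replicate averages.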

Point of comparison: A60U C87A C95A C108A A110G, “polymerase ribozyme fitness (log ratio)” value -4.07. Against it:
- A60U C87G — lower, ≤ -4.2
- U61A G143C — higher, -2.62
- A60U C76U G86A G141A — within 0.2 log units, -3.96
- U61G C87U C125G — lower, ≤ -4.2
- U61A A91C G100C A142U — lower, ≤ -4.2
- U61A C87U U102C C103G U130C — lower, ≤ -4.2
- A60U G81U C85U G92U C93G C96A C103U G128A — lower, ≤ -4.2
- G62A C69U G92C — higher, -3.74
- U61A U144C — higher, -2.19
- U61A G84A G92U G100U — lower, ≤ -4.2
- A60U G92U G141C — higher, -2.82
- U61G G94A A106C C116A G133C U146A — lower, ≤ -4.2
- U61G G67U U90A A120G — lower, ≤ -4.2
- U61A A66U U82C G92C C95G — lower, ≤ -4.2
- U61A C95U — higher, -0.916
- U61G C75G G88U A89U U101A G140C — lower, ≤ -4.2
- U61A C75G — within 0.2 log units, -3.89
- U61A G86A A122G — higher, -2.67
- U61A C96G — higher, -2.6
- U61A G94A — higher, -2.08
- U61A A137C G140A — within 0.2 log units, -4.19
- U61A A73C — within 0.2 log units, -3.91
- U61A A73G — higher, -1.42
- U61G U82C A89U A120U U135A — higher, -2.52
- U61A C87U G92A A106G A122U — higher, -2.84
- U61A C75U C125A G128A A142U A147G — lower, ≤ -4.2
- U61G A122C — higher, -1.51
- U61A G65A G81U C85U U102G — lower, ≤ -4.2
- U61A A64G G140C U144C — lower, ≤ -4.2
- U61C U104G G126C — higher, -2.04
- U61G G68A U77C C87U C93G C123U G126C U135C — lower, ≤ -4.2
- U61A C118A — higher, -2
- U61G U101C — higher, -2.61
- U61A G86U — higher, -2.99
- U61A C85A G141C — higher, -2.36
- U61A C79G U82C C132G — lower, ≤ -4.2
- U61G C99G A138G — lower, ≤ -4.2
- A60U U139A A150U — lower, ≤ -4.2
- U61C C69U G70U G86U A107C — lower, ≤ -4.2
- U61A A147U — higher, -0.329
- U61A C85U A97C A120G — higher, -3.26
- U61C G81C C95G C123U A142G — lower, ≤ -4.2
- A60U C131A — higher, -2.81
- U61A A142G — higher, -1.25
- A60U G70A C85U G86A — lower, ≤ -4.2
- U61A A73G G80U — lower, ≤ -4.2
- U61G C95U A97G C105A A106U — lower, ≤ -4.2
- A60U G143A — higher, -1.07
- A60U C63A C79G C96U A122U C123U — lower, ≤ -4.2
- U61A C87U — higher, -2.83
- U61A G65C C85A C96G U151C — lower, ≤ -4.2
- U61G A89U C95A C99A U109C G136A U148G C149A — lower, ≤ -4.2
- U61G A66C G133C — lower, ≤ -4.2
- A60U G80A C85A C93A — lower, ≤ -4.2
- U61C A64G — lower, ≤ -4.2
- U61G G136C — higher, -2.91
- A60U C96U — higher, -0.416
- U61C C85A A121G U135A — lower, ≤ -4.2
- A60U C79U G81U A91G C95G U102A — lower, ≤ -4.2
- U61A G84A — higher, -1.38
- U61G U77G G92A C96A G143U — lower, ≤ -4.2
- G62A A66G G86U A121G U127C — lower, ≤ -4.2
- A60U U61A C69G C96U — lower, ≤ -4.2
- U61C G94A G141A C149A — lower, ≤ -4.2
- A60U G84U U102G — within 0.2 log units, -4.18
- G62A A98U — higher, -1.42
- U61G C87A A150G — lower, ≤ -4.2
- U61A U77A C95U A97C U139A A150G — lower, ≤ -4.2
- G62A — higher, -0.367
- U61C G126A — higher, -0.237
- G62A A64U C69U C76U G84A C105G C116G — lower, ≤ -4.2
- U61A G88U — lower, ≤ -4.2
- A60U C85G C96U C105U — lower, ≤ -4.2
- U61A G67A C76A G81A C85A — lower, ≤ -4.2
- A60U G136C U139G — higher, -3.71
- U61A G94U A106G — higher, -2.71
- A60U C93U U151G — lower, ≤ -4.2
- U61A C105U U134G U139G — within 0.2 log units, -4.18
- U61A G83C — higher, -3.05
- U61G C69G U82A C95A A122U U148C — lower, ≤ -4.2
- U61A C129U — higher, -3.55
- U61A G140A — lower, ≤ -4.2
- A60U U77A — lower, ≤ -4.2
- A60U C69A — higher, -0.294
- U61A A66C G74A U90G A91G G133U A138C — lower, ≤ -4.2
- U61A C96G U109A — higher, -3.32
- A60U G65C — within 0.2 log units, -3.98
- U61G A64C C75G C93U — lower, ≤ -4.2
- U61G C85A G141A — higher, -1.58
- A60U C85A U101A A119G U127C — lower, ≤ -4.2
- U61A G86A A97U C99G A113U G152U — lower, ≤ -4.2
- G62A A73C C75G C87U C103G C132G U145G U146A — lower, ≤ -4.2
- U61G C93G C99G C123G C125G — lower, ≤ -4.2
- U61A G124C — higher, -2
- U61G C99U — higher, -2.77
- U61G G86A — higher, -2.45
- U61G C96U — higher, -1.29
- U61G G83U G86A C149U — lower, ≤ -4.2
- U61C G80C C85U C99U U146A — lower, ≤ -4.2
- U61A U101G — higher, -1.11
- U61G A66C A150G — lower, ≤ -4.2
- U61A A122G G140C — lower, ≤ -4.2
- U61A C72U — higher, -3.66
- U61C G92A A120C C123A U144C — lower, ≤ -4.2
- U61A C85U — higher, -1.28
- U61A C85G — lower, ≤ -4.2
- U61A C85A — higher, -3.12
- U61G G74U G83A — lower, ≤ -4.2
- U61G C63A G71U G80A G94U C105G C116G U139A — lower, ≤ -4.2
- U61C A73U A91U — lower, ≤ -4.2
- U61A A89U — higher, -0.941
- U61G C96U U144G — higher, -1.1
- U61A A91U — lower, ≤ -4.2
- A60U U130G G143C — lower, ≤ -4.2
- A60U G84A C116U — higher, -1.05
- A60U C79U A98G C103A — lower, ≤ -4.2
- A60U G84U — higher, -1.58
- U61A A97C — higher, -1.48
- U61C C96A A121G — higher, -2.74
- U61A G84U C114U — higher, -3.85
- G62A A121G — higher, -0.384
- A60U C85U U148C — higher, -3.17
- U61A G126C — higher, -0.89
- U61C A98U C103G A115G C131U — lower, ≤ -4.2
- U61A C69A C85A U139A C149G — lower, ≤ -4.2
- A60U U127G — higher, -3.08
- U61A A97G G136A — higher, -0.653
- U61A G92U — higher, -3.41
- U61A U90G U139C — lower, ≤ -4.2
- U61C C96A — higher, -3.31
- U61C C76A — higher, -2.59
- U61A C85U C87A C118G U134A — lower, ≤ -4.2
- U61A C96A G126A C131U — higher, -2.54
- U61A U82A — higher, -1.03
- G62A C69U — higher, -2.82
- A60U C85U G88U C99U — lower, ≤ -4.2
- A60U C99U C118U — higher, -2.07
- U61A C105U — higher, -1.02
- A60U C85A U145A — higher, -1.8
- U61A U78A C95U C123A U146A — lower, ≤ -4.2
- A60U C132U — higher, -0.719
- U61G C75U U144C — higher, -1.52
- U61G C76G C123U — lower, ≤ -4.2
- U61A C63U G133U — lower, ≤ -4.2
- U61G C95U — higher, -2.07
- U61G C95G — higher, -2.32
- A60U C93U — higher, -3.16
- U61A C96G G117A — higher, -2.2
- G62A C87G U90A C96U C99U U148G — lower, ≤ -4.2
- A60U G84U C95G — higher, 0.318
- G62A C85A U151C — lower, ≤ -4.2
- U61G C85A — higher, -2.29
- G62A C85A A121U U134C A137G — higher, -3.02
- U61A C149A — lower, ≤ -4.2
- U61A G68A — lower, ≤ -4.2
- U61C U82C C116U U134C — higher, -2.24
- A60U U78C A91U C116A G117U — lower, ≤ -4.2
- U61A A64C G71A G86A A91C C93U C118G — lower, ≤ -4.2
- U61G G92A — lower, ≤ -4.2
- U61A U90C C96A A115U G152U — lower, ≤ -4.2
- U61A G80A — higher, -2.08
- U61G C93A — within 0.2 log units, -4.13
- U61G C93U — higher, -1.89
- U61A C125A — higher, -2.73
- U61A C125U — higher, -1.86
- A60U U61A A142C — higher, -3.49
